These results are taken from patent US10201282B2 (The Regents of the University of California, priority 2014, dated 2019).

For the assay, the target named is T1, TEV protease (Tobacco etch virus, UniProt P04517).
T1 construct: With co-expression of the TEV protease; expressed in transfected cells; host or cells: HEK293 / HEK293T
Nature of the assay: iTEV (EK) coiled-coil sensor in HEK293 cells without or with TEV protease. The class given is cell-based. The source says:
HEK293 cells were transfected with the iTEV (EK) sensor without (top two panels) or with (bottom two panels) TEV protease.
For example, heterodimeric coiled coils were used to replace split GFP in iTEV (De Crescenzo, G., Litowski, J. R., Hodges, R. S. & O'Connor-McCourt, M. D. Real-Time Monitoring of the Interactions of Two-Stranded de NovoDesigned Coiled-Coils: Effect of Chain Length on the Kinetic and Thermodynamic Constants of Binding †. Biochemistry 42, 1754-1763 (2003)).

T1 sequence (P04517 2038-2279): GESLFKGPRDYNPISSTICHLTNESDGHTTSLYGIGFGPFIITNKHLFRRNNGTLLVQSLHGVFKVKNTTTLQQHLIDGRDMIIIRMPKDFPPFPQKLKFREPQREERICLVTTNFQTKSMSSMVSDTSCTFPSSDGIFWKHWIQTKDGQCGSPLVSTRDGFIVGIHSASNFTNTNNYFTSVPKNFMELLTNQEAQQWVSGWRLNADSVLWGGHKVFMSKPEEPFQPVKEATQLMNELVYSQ

B1: iTEV (EK) (protein)
chain: MGGSKVSALKEKVSALKEKVSALKEKVSALKEKVSALKEGGSGSTTNIAPALDGAFHRITSSSSLMGLCDETATIIREITGYDRVMVVRFDEEGNGEILSERRRADLEAFLGNRYPASTIPQIARRLYEHNRVRLLVDVNYTPVPLQPRISPLNGRDLDMSLSCLRSMSPIHQKYMQDMGVGATLVCSLMVSGRLWGLIACHHYEPRFVPFHIRAAGEALAETCAIRIATLESENLYFQSEFCEREQIHLAGSIQPHGILLAVKEPDNVVIQASINAAEFLNTNSVVGRPLRDLGGDLPLQILPHLNGPLHLAPMTLRCTVGSPPRRVDCTIHRPSNGGLIVELEPATKLEGGGSGGSEVSALEKEVSALEKEVSALEKEVSALEKEVSALEK
modifications: (Amino acid sequence of iTEV(+) 5.1)
For B1, the infrared fluorescence entry (TEV protease co-expressed) is listed as “becomes infrared fluorescent” and the infrared fluorescence result (without TEV protease) is reported as “not infrared fluorescent”.
